# Patent CN111434684A
# “And” between values parts separate entries of the source, which are not always exact repeats. Identical values can stand only once.
# B1: 抗H7N9全人源单克隆抗体5Q2 (antibody, V domains shown)
# VH: QVQLVESGAEVKKPGASVKVSCKASGYIFTNYDINWVRQATGQGLEWMGWMSPDNGDTGFAQKFQGRVTMTRNTSITTAYMELSSLTSEDTAVYYCATGSADCNGGNCYSWFDPWGQGTLVTVSS
# VL: SSELTQDPAVSVALGQTVRITCQGDRVRNYYASWYQQKPGQAPVLVIYGKSNRPSGIPDRFSGSSSGNTASLTITGAQAEDEADYYCSNRDTNGYHVLFGGGTKLTVLV
# Legend:
# [1] = target: H7N9病毒的HA蛋白(购自ACROBiosystems) (H7N9 influenza virus); assay: ELISA, HA coated, negative control
# [2] = target: H7N9病毒 A/Anhui/1/2013 的血凝素HA (on live virus) (influenza A virus A/Anhui/1/2013 (H7N9)); assay: cell-based or functional assay
# [3] = target: H7N9病毒的HA蛋白(购自ACROBiosystems) (H7N9 influenza virus); assay: ELISA, HA coated, supernatant of 293F cells transfected with 5Q2 H and L genes
Molecule,450nm [1],"中和实验 (微量中和-ELISA, MDCK细胞) IC50 [2] [µg/mL]",450nm [3]
"阴性对照 (ELISA, wells G, H)",0.0675 OD450 and 0.0554 OD450,–,–
B1,–,5.52,1.23 OD450 and 0.936 OD450 and 0.723 OD450
